Measurements reported in the DeepSol protein solubility set.

Assay: soluble on expression in E. coli; label from the status in PepcDB or PDB records

| Sequence | soluble on expression in E. coli |
| --- | --- |
| MGSDKIHHHHHHMLVFFKERLVLLSVPKTGTTAYQTALRARADIVVSDPPELKHAPIYRYDRFFRPIFEKMFGVEMEIMAVVREPVDWLGSWYRYRRRPFMQGKPNATHGLSFDDFVTAYMQGKRPGFANVGSQARFLTPRPNGCTVSHLFKYENQPGIRAFLQDRLQTEIAPPRENVSPDLPLDLSPEIAERLRRKCAEEFDLHASAT | not soluble |
| MLKGKKILLCVTGGIAVFKAAALTSKLTQAGAIVKVMMSESAVKFVTPLTFQALSRHDVYTDTFDEKDSAVIAHIDLADWADVVLVAPATANCIGKLANGIADDMITTTLLATTAPVWIAPAMNVHMYENKIVQKNMMTLKTLGYTFIEPGEGFLACGYVAKGRLEEPEAIIARLEEAFSEQKPLQGKRILITAGPTREKIDPVRFMTNFSSGKMGYAIAEVAVNLGAEVILVSGPTALNPPLHVTTVQVESAQDMLEAVIQHYQNVDVVIKTAAVADYRPKYVHDNKMKKKNGDAVIELERTVDILKTLGEMKDKQLLIGFAAETTNVEEYATKKLREKNANMIVANDVKAQGAGFGTDTNIVTMYRKDGEVIELPLLTKKEVAREILKQIEMMLEDDRL | soluble |
| MISIKGTGRFLLDNYRIWQRRAFNRPIQLRKGYKVLAIETSCDDTCVSVLDRFSKSAAPNVLANLKDTLDSIDEGGIIPTKAHIHHQARIGPLTERALIESNAREGIDLICVTRGPGMPGSLSGGLDFAKGLAVAWNKPLIGVHHMLGHLLIPRMGTNGKVPQFPFVSLLVSGGHTTFVLSRAIDDHEILCDTIDIAVGDSLDKCGRELGFKGTMIAREMEKFINQDINDQDFALKLEMPSPLKNSASKRNMLSFSFSAFITALRTNLTKLGKTEIQELPEREIRSIAYQVQESVFDHIINKLKHVLKSQPEKFKNVREFVCSGGVSSNQRLRTKLETELGTLNSTSFFNFYYPPMDLCSDNSIMIGWAGIEIWESLRLVSDLDICPIRQWPLNDLLSVDGWRTDQL | not soluble |
| MANDGGAKLSKNLLRMKFMQRGLDAEVKKQLDEEEKRIISDEHWFLDLPELKAKENHIIEERSFVPCEDLVYGRMSFKGFNPDVEKLMLLMNAPREEEDEEEEDESMNKMETDITDEEMAKRYQSLVESMRKKFAKKRDRSAVSNKEDVNCNVTDDIRPKRAFMKPQD | soluble |
| MSLSETSRQLSGRFLHVTDFHLDTHYRKGTSEETLCHRDSGSAGRLGAEGSDCDSPQALIDETFRWIEKNLKGKIDFVLWTGDSARHDNDEKIPRTASEIIDLNKALAAKFIEVFEDSGAARGLSIPVIPTIGNNDIMPHNIFREAPNRWTRKFTEVWSEFIPEAQRHTFEEGGWFSAELIPNKLAALSLNTMYFYESNSAVDGCAMPSEPGFEHMEWLRVQLEILRQRGMKAILIGHVPPARSGSKRSWDESCWQKYTLFMNRFRDVVVGSVYGHMNVDHFMLQDSHDVDIVAASEDSSSDPGFSVQSRTDYLASLREEWDSMPSPPGGDSSDILLSDDWNLDALGKKEREGHHHHHH | soluble |
| MRFVDFFNALLEGKVIGQKCGDCGSYTCPPKATCDNCGSRNLEAVELSGKGVIRTFTTTYVAPSGYTNEAPYTVAMVELDEGPWIVGRIDLPNEEIEKFGQDLIGARVSVYGKEFPTEPFYPDKKRRVVPMFRLEGLEHHHHHH | soluble |
| MSLSKMAALITQEIGSFRKPEYLSMEFHKIEGTEKFKELAERATIDTLKIFENTGLDNVGIGGEMYRWEMYEHPAERIKGLIFYGMVRSFDNRYYRKGSVIDKIERRGSFHMDEVEFVAKSTKKPIKIPITGPYTMMDWSFNDHYNDRHELAMEFARIINEELKEIQSKWPYISNGRKLEIQIDEPATTTHPDEMDIVVDSVNKSIEGIDAELSLHVCYSRDYRLLYDRIPELNIDGYNLEYSNRDTTDLGVEDAKRPGFQDIKYFNEVNESLQRKKFIGVGVTDVHIDFIEPVKLIEDRIKYVLNIIKDPELVKLNPDCGLRTRSRSIGEQKLRNMVIAKNNVLKDISEGHHHHHH | not soluble |
| MVALFQHSPYWQADGYGHSHRLKCQHFKQHRQYNDKLEISSNLGPQFNALLNILLNIVHPTLSHDTRRSKGLKIEGLLQSRELGNSWTVTMCIWVLKALQSSAPNKPLDWLDPMPCFQNLLARGTP | soluble |
| MAHHHHHHMTQQWFPLMAVTPDYLHCITEERFRTNVYEPEADTFLLLEALDKDAHLLRALQPRRCVEIGCGSGTVISHLMLLLLGATEGGNLGSGSAEKSTAEFHAVDVNPVALEATSITWHNTQKRIIGGDTILPLHLHRGDLFSPFEHEASDITEYTKEEKEEFTFDVILFNPPYVPTTMEELQSAEAGKDLITAAWCGGPRGRVVVDRFISKLPSFLSSRGVCYIVAIRENDVEELMEVIRGTFPNDRCYPVNVTVTAERYTGEHLRVIRVS | not soluble |
| MYEKTKWKIQKMMKKGVFSGASFCFIEGEKEESNCWGLAQVKPTKEQLTSAMLFDVASLTKVVGTTTVILQLVEEGKIILDQSLQTYYPSFQDSNITIRHLLTHTADLQGYIPNRDQLNAQELKDAYNHSFHAGKAIGKKVVYTDAGTILLGFMLEEMFQQSMIEILSERVLLPLGMNESTFLPKNPLNCVPTELHEQRGLIRGATHDPKAFVLREHAGNAGLFSNVYDLTKFVRMYLNRGSYHNHQFLKKETIDLLLVNQVPAADKPRSLGWDFKYDVATQRPLLFHTGYTGTFLLIDVQQQSALIFLSNRVHPEDHRNTYIEERDQLLATYLKEKSSVSDEMTSF | not soluble |
| MKESYYSIGEVSKLANVSIKALRYYDKIDLFKPAYVDPDTSYRYYTDSQLIHLDLIKSLKYIGTPLEEMKKAQDLEMEELFAFYTEQERQIREKLDFLSALEQTISLVKKRMKRQMEYPALGEVFVLDEEEIRIIQTEAEGIGPENVLNASYSKLKKFIESADGFTNNSYGATFSFQPYTSIDEMTYRHIFTPVLTNKQISSITPDMEITTIPKGRYACIAYNFSPEHYFLNLQKLIKYIADRQLTVVSDVYALIIPIHYSPKKQEEYRVEMKIRILDHHHHHH | soluble |
| MRYDVVIIGGGLAGLTCGIRLAEQGKRCAIVSAGQNALHFSSGALDLLSHLPDGQPVSQPLDALDELARQAPHHPYSRMGAAAVAALLPQVEALLERSNISLLGNHQQNHWRMTPLGKFRACWLSPADGVTRGLADSHFGDNPLIAGIEGFLDFQSRIVAGTLQTQGIAARSDELKLPVLDRLRQNPSEFRAVNIARLLDRPENRSALVEELSLLANGNDAIIMPACLGLDSPEIVSELADALGKPVLLLPTLPPSVLGLRLHQALSQRFRQLGGMVMPGDRAVRASLSSQEIAVHSHHHRDIPLRAKHAVLASGSFFSNGLVTQFDRVTEPVFGLDVRFAEQREGWSQQDVFAPQPYMQFGAIVDEHLHPRIAGETVNNLYAIGAVLEGFDPIVQGCGAGVSLLSALHVAEQILKEGNPLEHHHHHH | soluble |
| MLYPSKPNNEALRIQTLRELNVLDTSPEERFDRLTRLAKRLFNVPIALVSLVDADRQWFKSCVGLDVSETSRDISFCGHAILGDQILTVPDAGLDERFHDNPLVVGAPGIRFYAGCPLTVTNGSKLGTLCLIDIKPRDLDDEDRALLRDLARMAEQELAAVQMASMDELTLLSNRRGFEALARHALGVCKRLEKPATLLFFDLNDFKQINDTYGHAEGDGALKTFADVLRIAFRESDVIGRLGGDEFVALLTAADHVETSAIMARLREILDERNATLKRGYDIRFSVGQIEYDAERHPDIEALLADADKAMYLHKQASKRAR | not soluble |
| MGSDKIHHHHHHMKWNSNLYDHKHSFVAEYGKSMINFVNVGKDQKILDLGCGTGVLTNELAKNGATVIGTDLSKNMIDKAKTNYPNLIFQVKDATNLSFKNEFDTVFSNAVFHWISNQEKLLHSIYTCLKDNGTLICEFGAQNNISQIQTAFEKVIEQKGYSYCSPFFFPSKEEYKLLLDQAGFEVKHIIEYDRPTPLADGEKGLRNWICQFFASDLLEFSDEQKEQILFETEKLCKNSIWKNNQWVADYRRIQIIAVKNKNNGTK | not soluble |
| MIVSMIAALANNRVIGLDNKMPWHLPAELQLFKRATLGKPIVMGRNTFESIGRPLPGRLNIVLSRQTDYQPEGVTVVATLEDAVVAAGDVEELMIIGGATIYNQCLAAADRLYLTHIELTTEGDTWFPDYEQYNWQEIEHESYAADDKNPHNYRFSLLERVK | soluble |
| MNYHWSDHPDPNKWADCVHCGMCLEACPTYELTGHEQQSPRGRVHLIKSVAEGKLEVNEAFADPVFTCLDCRACETACPADVEVGGLIEEARGQIRQALPLSGWKLEHHHHHH | not soluble |
| GAMAQVPTDPGYFSVLLDVKHFSPEEISVKVVGDHVEVHARHEERPDEHGFIAREFHRRYRLPPGVDPAAVTSALSPEGVLSIQATPASAQASLPSPPAAK | soluble |
| MYIGIDLGTSGVKVILLNEQGEVVAAQTEKLTVSRPHPLWSEQDPEQWWQATDRAMKALGDQHSLQDVKALGIAGQMHGATLLDAQQRVLRPAILWNDGRCAQECTLLEARVPQSRVITGNLMMPGFTAPKLLWVQRHEPEIFRQIDKVLLPKDYLRLRMTGEFASDMSDAAGTMWLDVAKRDWSDVMLQACDLSRDQMPALYEGSEITGALLPEVAKAWGMATVPVVAGGGDNAAGAVGVGMVDANQAMLSLGTSGVYFAVSEGFLSKPESAVHSFCHALPQRWHLMSVMLSAASCLDWAAKLTGLSNVPALIAAAQQADESAEPVWFLPYLSGERTPHNNPQAKGVFFGLTHQHGPNELARAVLEGVGYALADGMDVVHACGIKPQSVTLIGGGARSEYWRQMLADISGQQLDYRTGGDVGPALGAARLAQIAANPEKSLIELLPQLPLEQSHLPDAQRYAAYQPRRETFRRLYQQLLPLMA | soluble |
| MGSDKIHHHHHHMKRAVVVFSGGQDSTTCLIQALQDYDDVHCITFDYGQRHRAEIEVAQELSQKLGAAAHKVLDVGLLNELATSSLTRDSIPVPDYDANAQGIPNTFVPGRNILFLTLASIYAYQVGAEAVITGVCETDFSGYPDCRDEFVKALNQAIVLGIARDIRFETPLMWLNKAETWALADYYQQLDTVRYHTLTCYNGIKGDGCGQCAACHLRANGLAQYQKDAATVMASLKQKVGLR | not soluble |
| MGSDKIHHHHHHMKFNIKSVKNYRLPMSWQHIQKGTMYCSLINEFFADWFQKVLGDQWLMIGGLSAELELNLPLRHKIILMPEMTKNPTALFPANQNVTEEISLIQADPLQLPFVQQSIHACVLANTLNFTQHSHQLLGEIARVLENDGYLFISLFNPYSPLIFKQNLNHKNQTALPFKQYFTWRILDWIKLLNFEILDQVNLSEKKQQDCFSPLTLIVAQKRTYPFPLYKIKNKIVPYQSFQFMGENTKNAT | not soluble |
| MGFHLRGNNDFAFKRLYINLPQNSQMRAQLRRLIDNGSDTVVVSDKQDADAFLDVLSENRVKTISSLTPQGVVREYRITYRFSFQLRDAHDNLLIPPSEITLFRDLSYNETQVLAKDYEEAALYRDMQGDIVNQLVRRLASVRLPSLEHHHHHH | soluble |
| MGSDKIHHHHHHMEHTYRLVISCPDRVGIVAKVSNFLSTYNGWITEASHHSDTQAGWFFMRHEIKAESIPFGLDQFRAAFEPIAREFNMNWHIADSARPKRVILMCSKESHCLADLLHRWHSKELNCEIVAVISNHDDLRRMVEWHEIPYHHVPVSKENKAEAFAHIDELFQQYETDVVVLARYMQILPAELCGKYSGKVINIHHSFLPSFAGARPYHQAYSRGVKLIGATCHYVTQDLDEGPIIEQDVIRISHSDSIEDMVRLGKDVEKNVLARGLRSHIEDRVITYENKTVVFD | not soluble |
